Paper PMC12207370, “Macrocyclic Peptide Probes for Immunomodulatory Protein CD59: Potent Modulators of Bacterial Toxin Activity and Antibody‐Dependent Cytotoxicity” (Angewandte Chemie (International Ed. in English), 2025)
Where two headings read alike, the source gives them in different places. Peptide text beside a SMILES is read from it.

Tests used:
CD59 = target: T1, CD59 (Homo sapiens, UniProt P13987); assay: SPR (Biacore S200) binding to immobilised biotinylated CD59
T1 construct: Recombinant soluble human CD59 with an additional C-terminal cysteine residue
T1 sequence (P13987 26-102 limits assumed): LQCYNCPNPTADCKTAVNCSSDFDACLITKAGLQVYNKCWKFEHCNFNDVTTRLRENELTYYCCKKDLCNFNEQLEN
Description: To identify which of these peptides bound CD59 most tightly, we used a Biacore S200 surface plasmon resonance (SPR) platform to investigate CD59 affinity (Figure 2b), using a known protein binding partner of CD59 (rILYd4) as a benchmark. Four 13‐mer macrocyclic peptides and one 14‐mer macrocyclic peptide were identified with a dissociation constant (K D) lower than that of rILYd4. Considering their fourfold lower molecular weight, these peptides bind with up to 19‐fold greater efficiency compared to rILYd4 (Figure 2b).
Equipment: SPR analysis was performed on a Cytiva Biacore S200. All buffers were prepared using ultra-pure water from a Millipore Elix Q-Gard purification system. Solutions and buffers were filtered with a 0.22 μm filter and degassed prior to use. The assays were performed on Series S streptavidin (SA) sensor chip (Cytiva). PBS-P+ buffer 10X (0.2 M phosphate buffer with 27 mM KCl, 1.37 M NaCl and 0.5% Surfactant P20 (Tween 20)) was used for the preparation of the assay running buffer (PBS-P+ 1X).
Immobilisation of CD59-biotin: Biotinylated CD59 was immobilised on the surface of a SA chip by non-covalent capture (biotin streptavidin interaction) as per the manufacturer’s instructions. The system was initially primed with running buffer and normalised using BIAnormalizing solution (70% (w/w) glycerol) (Cytiva). Before immobilising the protein, the surface was conditioned with three consecutive one-minute injections of 1 M NaCl in 50 mM NaOH. Biotinylated CD59 (0.5 µg/mL in running buffer) was flowed over the protein (active) channel for different contact times to achieve different immobilisation levels (600–1200 RU). After each protein injection, the needle and injection loop were washed using 50% isopropanol in 1 M NaCl and 50 mM NaOH. A reference channel was prepared by similar treatment; however, running buffer alone rather than CD59-biotin in running buffer was flowed over the chip the same way.
Interaction analysis: Multicycle kinetic and affinity approach was used for the analysis of peptides interactions with CD59. Two-fold serial dilutions of each peptide were prepared in running buffer and were flowed over both the ligand and reference channel using a flow rate (30 μL/min) at 25 °C. A zero concentration was added to each analyte series and three cycles of buffer were run between analytes to restore the baseline. The obtained sensorgrams were analysed using the embedded Biacore S200 Evaluation software. The data were normalised by subtracting RU values of the reference channel and zero concentration of the analyte series. Kinetic rate constants (kon and koff) were determined by fitting the normalised data using the built-in Kinetic analysis model (non-linear regression with a 1:1 Langmuir binding model), KD values were then calculated from the two rate constants ([…]). The KD values were determined again by fitting the normalised data using the built-in Affinity analysis model (1:1 Langmuir binding model).

biotinylated CD59 = target: T2, biotinylated CD59 (Homo sapiens, UniProt P13987); assay: mRNA-display cyclic peptide screen against CD59-biotin, NGS abundance after 6th selection round; details: for Counts (raw counts for peptide sequence), Seq I: NGS sample Seq I; for Counts (raw counts for peptide sequence), Seq I / Counts (raw counts for peptide sequence), Seq II / Counts Seq I / Counts Seq II: sheet R6 (6th selection round); for Counts (raw counts for peptide sequence), Seq II: NGS sample Seq II; for Percentage of the pool, averaged across the two sequencing samples: average of Seq I and Seq II; for Percentage of the pool, averaged across the two sequencing samples / Percentage of the pool, Seq I / Percentage of the pool, Seq II / Percentage Seq I / Percentage Seq II / Percentage Average: sheet R6; for Percentage of the pool, Seq I: counts normalised by total counts of NGS sample Seq I; for Percentage of the pool, Seq II: counts normalised by total counts of NGS sample Seq II; for Percentage Seq I: counts normalised by total counts of sample Seq I; for Percentage Seq I / Percentage Seq II: percentage of the pool; for Percentage Seq II: counts normalised by total counts of sample Seq II; for Percentage Average: percentage of the pool averaged across the two sequencing samples; for Counts Seq I / Counts Seq II: raw NGS counts of peptide sequence; for Counts Seq I: sequencing sample Seq I; for Counts Seq II: sequencing sample Seq II
T2 construct: Recombinant soluble human CD59 with an additional C-terminal cysteine residue
T2 sequence (P13987 26-102 limits assumed): T1 sequence (P13987 26-102 limits assumed)
Procedure, shortened: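 Peptide–mRNA fusions were made by in vitro translation with a customised PURE express kit. The kit lacked release factor 1 and methionine and was supplemented with […] initiator tRNA carrying N-chloroacetyl-d-tyrosine. Thioether macrocycles were formed, then enriched and amplified over iterative rounds on CD59-biotin immobilised on streptavidin beads. NGS read counts per sequence were recorded after the 6th selection round.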

[1] = SPR, immobilized CD59, average of three technical replicates ± SEM, read-out: KD (nM) ± SEM
[2] = Ala scan of CP-06, SPR, n = 1, read-out: KD

Molecule | Counts (raw counts for peptide sequence), Seq I (biotinylated CD59) | Counts (raw counts for peptide sequence), Seq II (biotinylated CD59) | Percentage of the pool, averaged across the two sequencing samples (biotinylated CD59) | Percentage of the pool, Seq I (biotinylated CD59) | Percentage of the pool, Seq II (biotinylated CD59) | also measured
CC(C)[C@@H]1NC(=O)[C@H](Cc2ccccc2)NC(=O)[C@@H](Cc2ccc(O)cc2)NC(=O)CSC[C@@H](C(N)=O)NC(=O)CNC(=O)[C@H](CCCNC(=N)N)NC(=O)[C@H]([C@@H](C)O)NC(=O)[C@H](Cc2c[nH]cn2)NC(=O)[C@H](CC(=O)O)NC(=O)[C@H](CCCNC(=N)N)NC(=O)[C@H](CC(N)=O)NC(=O)CNC(=O)[C@H]([C@@H](C)O)NC1=O [CP-02] (HELM PEPTIDE1{[O=C(C[*:3])[*:2]].[dY].F.V.T.G.N.R.D.H.T.R.G.C.[am]}$PEPTIDE1,PEPTIDE1,1:R3-14:R3$$$V2.0) |  |  |  |  |  | Kd (CD59; [1]): 15.3 ± 0.2 nM
CC[C@H](C)[C@@H]1NC(=O)[C@H](CCC(N)=O)NC(=O)[C@H](CCCNC(=N)N)NC(=O)[C@H](CC(N)=O)NC(=O)CNC(=O)[C@H](Cc2c[nH]c3ccccc23)NC(=O)[C@H](C)NC(=O)[C@H](CO)NC(=O)[C@@H](Cc2ccc(O)cc2)NC(=O)CSC[C@@H](C(N)=O)NC(=O)[C@H](Cc2ccc(O)cc2)NC(=O)[C@H](Cc2ccc(O)cc2)NC(=O)[C@H](CCC(N)=O)NC1=O [CP-03] (HELM PEPTIDE1{[O=C(C[*:3])[*:2]].[dY].S.A.W.G.N.R.Q.I.Q.Y.Y.C.[am]}$PEPTIDE1,PEPTIDE1,1:R3-14:R3$$$V2.0) |  |  |  |  |  | Kd (CD59; [1]): 23.4 ± 0.7 nM
CC(C)[C@@H]1NC(=O)[C@H](Cc2c[nH]cn2)NC(=O)[C@@H](Cc2ccc(O)cc2)NC(=O)CSC[C@@H](C(N)=O)NC(=O)CNC(=O)[C@H](CCCNC(=N)N)NC(=O)[C@H]([C@@H](C)O)NC(=O)[C@H](Cc2ccccc2)NC(=O)[C@H](CO)NC(=O)[C@H](CCCNC(=N)N)NC(=O)[C@H](CC(N)=O)NC(=O)CNC(=O)[C@H](Cc2ccccc2)NC1=O [CP-04] (HELM PEPTIDE1{[O=C(C[*:3])[*:2]].[dY].H.V.F.G.N.R.S.F.T.R.G.C.[am]}$PEPTIDE1,PEPTIDE1,1:R3-14:R3$$$V2.0) |  |  |  |  |  | Kd (CD59; [1]): 11.9 ± 0.3 nM
CC(C)[C@@H]1NC(=O)[C@H](CO)NC(=O)[C@H](CO)NC(=O)[C@H](CCCNC(=N)N)NC(=O)[C@H](CC(N)=O)NC(=O)[C@H](C)NC(=O)[C@H](Cc2c[nH]c3ccccc23)NC(=O)[C@H]([C@@H](C)O)NC(=O)[C@H](Cc2c[nH]c3ccccc23)NC(=O)[C@H](CO)NC(=O)[C@@H](Cc2ccc(O)cc2)NC(=O)CSC[C@@H](C(N)=O)NC(=O)CNC(=O)[C@H](CCCNC(=N)N)NC1=O [CP-06-G6A] (HELM PEPTIDE1{[O=C(C[*:3])[*:2]].[dY].S.W.T.W.A.N.R.S.S.V.R.G.C.[am]}$PEPTIDE1,PEPTIDE1,1:R3-15:R3$$$V2.0) |  |  |  |  |  | Kd (CD59; [2]): 235 nM
CC(C)[C@@H]1NC(=O)[C@H](CO)NC(=O)[C@H](CO)NC(=O)[C@H](CCCNC(=N)N)NC(=O)[C@H](CC(N)=O)NC(=O)CNC(=O)[C@H](Cc2c[nH]c3ccccc23)NC(=O)[C@H]([C@@H](C)O)NC(=O)[C@H](Cc2c[nH]c3ccccc23)NC(=O)[C@H](CO)NC(=O)[C@@H](Cc2ccc(O)cc2)NC(=O)CSC[C@@H](C(N)=O)NC(=O)[C@H](C)NC(=O)[C@H](CCCNC(=N)N)NC1=O [CP-06-G13A] (HELM PEPTIDE1{[O=C(C[*:3])[*:2]].[dY].S.W.T.W.G.N.R.S.S.V.R.A.C.[am]}$PEPTIDE1,PEPTIDE1,1:R3-15:R3$$$V2.0) |  |  |  |  |  | Kd (CD59; [2]): 678 nM
CC(C)[C@@H]1NC(=O)[C@H](CO)NC(=O)[C@H](CO)NC(=O)[C@H](CCCNC(=N)N)NC(=O)[C@H](CC(N)=O)NC(=O)CNC(=O)[C@H](Cc2c[nH]c3ccccc23)NC(=O)[C@H]([C@@H](C)O)NC(=O)[C@H](Cc2c[nH]c3ccccc23)NC(=O)[C@H](CO)NC(=O)[C@@H](Cc2ccc(O)cc2)NC(=O)CSC[C@@H](C(=O)NCC(=O)N[C@@H](CO)C(=O)NCC(=O)N[C@@H](CO)C(=O)NCC(=O)N[C@@H](CO)C(=O)N[C@@H](CCCCN)C(N)=O)NC(=O)CNC(=O)[C@H](CCCNC(=N)N)NC1=O [CP-06-GSGSGSK] (HELM PEPTIDE1{[O=C(C[*:3])[*:2]].[dY].S.W.T.W.G.N.R.S.S.V.R.G.C.G.S.G.S.G.S.K.[am]}$PEPTIDE1,PEPTIDE1,1:R3-15:R3$$$V2.0) |  |  |  |  |  | Kd (CD59; SPR, Figure S2T, read-out: KD): 18 nM
CC(C)[C@@H]1NC(=O)[C@H](CO)NC(=O)[C@H](CO)NC(=O)[C@H](CCCNC(=N)N)NC(=O)[C@H](C)NC(=O)CNC(=O)[C@H](Cc2c[nH]c3ccccc23)NC(=O)[C@H]([C@@H](C)O)NC(=O)[C@H](Cc2c[nH]c3ccccc23)NC(=O)[C@H](CO)NC(=O)[C@@H](Cc2ccc(O)cc2)NC(=O)CSC[C@@H](C(N)=O)NC(=O)CNC(=O)[C@H](CCCNC(=N)N)NC1=O [CP-06-N7A] (HELM PEPTIDE1{[O=C(C[*:3])[*:2]].[dY].S.W.T.W.G.A.R.S.S.V.R.G.C.[am]}$PEPTIDE1,PEPTIDE1,1:R3-15:R3$$$V2.0) |  |  |  |  |  | Kd (CD59; [2]): 209 nM
YLSGSSNFARG | 48 | 7 | 0.014% | 0.011% | 0.016% | 
YLSGSSNFTRG |  |  |  |  |  | Percentage Seq I (biotinylated CD59): 0.042%; Percentage Seq II (biotinylated CD59): 0.044%; Percentage Average (biotinylated CD59): 0.043%; Counts Seq I (biotinylated CD59): 184; Counts Seq II (biotinylated CD59): 19
YSCPDWVRGSRT | 36 | 6 | 0.011% | 0.008% | 0.014% | 
YSSGSRHWTRS | 57 | 7 | 0.015% | 0.013% | 0.016% | 
YVFGNRSFARG | 32 | 7 | 0.012% | 0.007% | 0.016% | 
YVFGNRSFTRG |  |  |  |  |  | Percentage Seq I (biotinylated CD59): 0.504%; Percentage Seq II (biotinylated CD59): 0.524%; Percentage Average (biotinylated CD59): 0.514%; Counts Seq I (biotinylated CD59): 2205; Counts Seq II (biotinylated CD59): 226
YVFWSRTHTYG |  |  |  |  |  | Percentage Seq I (biotinylated CD59): 0.172%; Percentage Seq II (biotinylated CD59): 0.165%; Percentage Average (biotinylated CD59): 0.168%; Counts Seq I (biotinylated CD59): 751; Counts Seq II (biotinylated CD59): 71
YVRGDAWTVLG |  |  |  |  |  | Percentage Seq I (biotinylated CD59): 0.027%; Percentage Seq II (biotinylated CD59): 0.019%; Percentage Average (biotinylated CD59): 0.023%; Counts Seq I (biotinylated CD59): 117; Counts Seq II (biotinylated CD59): 8
YVRGDLYSVLG | 40 | 5 | 0.010% | 0.009% | 0.012% | 
YVTGNRDHTRG | 66 | 8 | 0.017% | 0.015% | 0.019% | 
YVYGSRDRC | 74 | 5 | 0.014% | 0.017% | 0.012% | 
YVYGSRDRCWG |  |  |  |  |  | Percentage Seq I (biotinylated CD59): 0.445%; Percentage Seq II (biotinylated CD59): 0.441%; Percentage Average (biotinylated CD59): 0.443%; Counts Seq I (biotinylated CD59): 1946; Counts Seq II (biotinylated CD59): 190
